Reference: patent publication US20200207829

System: TMt-NES-dCas9VP64

TEVC151A
EYFP activation score: did not show any activity above baseline levels
